How the values were obtained:
Test in all cases: SPR
[1] = biological target: recombinant α-enolase of oral streptococcal strain SV90
[2] = biological target: recombinant α-enolase of Streptococcus salivarius SV41 (IPM …) (Streptococcus salivarius, UniProt J7THK5 1-434)
[3] = biological target: recombinant α-enolase of Streptococcus salivarius SV17 (IPM FYENG—VY) (Streptococcus salivarius, UniProt J7THK5 1-434)
[4] = biological target: recombinant α-enolase of Streptococcus oralis SV11 (IPM …) (Streptococcus oralis, UniProt A0A1X1IR15 1-434)

B1: human plasminogen (natural protein)
chain: EPLDDYVNTQGASLFSVTKKQLGAGSIEECAAKCEEDEEFTCRAFQYHSKEQQCVIMAENRKSSIIIRMRDVVLFEKKVYLSECKTGNGKNYRGTMSKTKNGITCQKWSSTSPHRPRFSPATHPSEGLEENYCRNPDNDPQGPWCYTTDPEKRYDYCDILECEEECMHCSGENYDGKISKTMSGLECQAWDSQSPHAHGYIPSKFPNKNLKKNYCRNPDRELRPWCFTTDPNKRWELCDIPRCTTPPPSSGPTYQCLKGTGENYRGNVAVTVSGHTCQHWSAQTPHTHNRTPENFPCKNLDENYCRNPDGKRAPWCHTTNSQVRWEYCKIPSCDSSPVSTEQLAPTAPPELTPVVQDCYHGDGQSYRGTSSTTTTGKKCQSWSSMTPHRHQKTPENYPNAGLTMNYCRNPDADKGPWCFTTDPSVRWEYCNLKKCSGTEASVVAPPPVVLLPDVETPSEEDCMFGNGKGYRGKRATTVTGTPCQDWAAQEPHRHSIFTPETNPRAGLEKNYCRNPDGDVGGPWCYTTNPRKLYDYCDVPQCAAPSFDCGKPQVEPKKCPGRVVGGCVAHPHSWPWQVSLRTRFGMHFCGGTLISPEWVLTAAHCLEKSPRPSSYKVILGAHQEVNLEPHVQEIEVSRLFLEPTRKDIALLKLSSPAVITDKVIPACLPSPNYVVADRTECFITGWGETQGTFGAGLLKEAQLPVIENKVCNRYEFLNGRVQSTELCAGHLAGGTDSCQGDSGGPLVCFEKDKYILQGVTSWGLGCARPNKPGVYVRVSRFVTWIEGVMRNN
Kd [1]: 0.3 µM | Kd [2]: 0.3 µM | Kd [3]: 0.5 µM | Kd [4]: 1.6 µM
